Two substances from patent publication US20190352642A1 can be followed below.

The target of the experiment is complement C1q (in Hamster complement, Abcham Ab155111) (hamster). Kind of experiment: cell-based or functional assay.

In turn, “h-IgG Fc fragment (Sigma Aldrich), chemically coupled to human red blood cells” had a complement-induced hemolysis of Fc coupled RBC (OD 540 nm, against 100% hemolysis by Tween-20); 6 nm activated Fc (about 5x10^6 molecules per RBC) of 80% and a complement-induced hemolysis of Fc coupled RBC; 1.2 nm activated Fc (about 1x10^6 molecules per RBC) of 30 to 40%.

In turn, “h-IgG (Sigma Aldrich), chemically coupled to human red blood cells (antibody)” had a complement-induced hemolysis of IgG coupled RBC (OD 540 nm, against 100% hemolysis by Tween-20); 6 nm activated IgG (about 5x10^6 molecules per RBC) of 90%; a complement-induced hemolysis of IgG coupled RBC; 1.2 nm activated IgG (about 1x10^6 molecules per RBC) of 30 to 40%; a complement-induced hemolysis when about 1-2x10^4 IgG molecules were bound per one RBC (not shown) of 85 to 95%.
